Legend:
Cyno PD-L1 = assay: Binding kinetics and affinity by surface plasmon resonance (Biacore); set-up: species or system cynomolgus monkey; conditions: SPR, analysis at 37° C.
Method: (§1) The kinetics and equilibrium dissociation constant (KD) for human PD-L1 is determined for antibodies of the present invention using surface plasmon resonance (Biacore).
(§2) Immobilization of antibodies of the present invention as ligand on to sensor chip surface is performed at 25° C. Soluble human PD-L1-Fc fusion protein (and in some cases, cynomolgus monkey PD-L1-Fc fusion proteins) is injected as analyte at concentrations ranging from 0.0123 nM-9 nM. The analysis is performed at 37° C. The contact time for each sample is 180 seconds at 30 μL/minute. The dissociation time was 240-1500 seconds. The immobilized surface is regenerated for 18 seconds with 0.95 M NaCl/25 mM NaOH at 30 μL/minute, and then stabilized for 30 seconds. Binding kinetics are analyzed using the Biacore T200 Evaluation software (Version 3.0). Data are referenced to a blank flow cell, and the data are fit to a 1:1 binding model.

PD-L1 binding to PD-1 = PD-L1 binding to PD-1 (Homo sapiens, UniProt Q9NZQ7); assay: ELISA blocking of the interaction of PD-L1 with PD-1; conditions: after 4 weeks at 4° C., 25° C. and 40° C.
Chain of PD-L1 binding to PD-1 (Q9NZQ7 19-239 limits assumed): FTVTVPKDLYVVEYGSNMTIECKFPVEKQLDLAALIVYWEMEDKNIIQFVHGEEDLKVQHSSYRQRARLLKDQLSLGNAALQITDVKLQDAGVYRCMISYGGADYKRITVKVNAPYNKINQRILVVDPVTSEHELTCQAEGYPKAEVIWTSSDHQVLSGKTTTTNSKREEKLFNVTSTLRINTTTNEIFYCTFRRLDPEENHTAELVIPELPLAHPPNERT
Method: The ability for antibodies of the present invention to block PD-L1 binding to PD-1 can be measured in an ELISA assay. For the receptor-ligand blocking assay, varying amounts (of anti-PD-L1 antibody or control IgG are mixed with a fixed amount of biotinylated PD-L1-Fc fusion protein (100 ng/well) and incubated at room temperature for 1 hour. The mixture is transferred to 96-well plates pre-coated with PD-1-Fc (1 μg/ml) and then incubated at room temperature for an additional 1 hour. After washing, streptavidin HRP conjugate is added, and the absorbance at 450 nm is read. IC50 represents the antibody concentration required for 50% inhibition of PD-L1 binding to PD-1.

human PD-L1 [1] = target: T1, human PD-L1 (Homo sapiens, UniProt Q9NZQ7); assay: ELISA binding to recombinant PD-L1; set-up: purchased R&D Systems; conditions: after 4 weeks at 4° C., 25° C. and 40° C.
Method: The ability for antibodies of the present invention to bind human PD-L1 can be measured with an ELISA assay. For the PD-L1 binding assay, a 96-well plate (NUNC®) is coated with human PD-L1-Fc (R&D Systems) overnight at 4° C. Wells are blocked for 2 hours with blocking buffer (PBS containing 5% nonfat dry milk). Wells are washed three times with PBS containing 0.1% TWEEN®-20. Anti-PD-L1 antibody or control IgG (100 μL) is then added and incubated at room temperature for 1 hour. After washing, the plate is incubated with 100 μL of goat anti-human IgG F(ab′)2-HRP conjugate (Jackson Immuno Research) at room temperature for 1 hour. The plates are washed and then incubated with 100 μL of 3,3′, 5,5′-tetra-methylbenzidine. The absorbance at 450 nm is read on a microplate reader. The half maximal effective concentration (EC50) is calculated using GraphPad Prism 6 software.
Target sequence in this assay (Q9NZQ7 with tags, fused parts or gaps limits assumed): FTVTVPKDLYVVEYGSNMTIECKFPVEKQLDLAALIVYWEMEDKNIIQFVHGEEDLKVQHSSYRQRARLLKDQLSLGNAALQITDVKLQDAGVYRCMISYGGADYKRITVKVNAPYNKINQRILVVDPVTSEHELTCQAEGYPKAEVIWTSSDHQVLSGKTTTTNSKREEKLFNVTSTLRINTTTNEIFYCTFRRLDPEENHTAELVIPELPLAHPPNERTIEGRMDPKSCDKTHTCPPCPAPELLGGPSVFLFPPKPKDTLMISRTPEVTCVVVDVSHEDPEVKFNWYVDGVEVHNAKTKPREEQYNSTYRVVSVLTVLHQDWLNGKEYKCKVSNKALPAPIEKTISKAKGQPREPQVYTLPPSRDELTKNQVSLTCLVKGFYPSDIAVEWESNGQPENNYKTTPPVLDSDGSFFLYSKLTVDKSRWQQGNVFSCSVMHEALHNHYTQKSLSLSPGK

human PD-L1 [2] = target: T1, human PD-L1; assay: Binding kinetics and affinity by surface plasmon resonance (Biacore); set-up: Soluble human PD-L1-Fc fusion protein; conditions: SPR, analysis at 37° C.
Method: as §1, §2
Target sequence in this assay (Q9NZQ7 19-238 limits assumed): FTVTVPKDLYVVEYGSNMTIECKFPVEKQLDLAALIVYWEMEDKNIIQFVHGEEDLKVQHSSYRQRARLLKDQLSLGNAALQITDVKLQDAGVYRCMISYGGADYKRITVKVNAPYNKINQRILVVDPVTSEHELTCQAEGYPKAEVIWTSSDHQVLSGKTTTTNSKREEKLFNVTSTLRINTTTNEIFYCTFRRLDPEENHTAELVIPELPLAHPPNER

Substance: LY3300054: IgG1 variant antibody lacking Fc effector function, that binds human PD-L1; HC SEQ ID NO: 10, LC SEQ ID NO: 11
- Koff (Cyno PD-L1): 0.000184 s⁻¹
- Kon (Cyno PD-L1): 1.51e+06 M⁻¹ s⁻¹
- blocking activities after storage (PD-L1 binding to PD-1): retains its blocking activities
- binding activities after storage (human PD-L1 [1]): retains its binding activities
- Koff (human PD-L1 [2]): 0.000114 s⁻¹
- Kon (human PD-L1 [2]): 1.4e+06 M⁻¹ s⁻¹
